The values below come from publication PMC5772552.

Holding throughout (test): ELISA; semi-quantitative; plate coated with 30 nM protein (GST-tagged cohesin) in 0.1 M Na2CO3 pH 9.6 at 4 °C; His6-tagged dockerin 10 pM-1 μM in TBS with 1 mM CaCl2 and 1% BSA, 1 h, room temperature; anti-6xHis and HRP secondary antibody; fit with Hill equation
For orientation: An ELISA detects its analyte on a solid surface through an enzyme-linked reagent.

The target in assay [1] is GST-Coh1 (from plasmid pGEX-Coh1) (Clostridium thermocellum).
Assay [2] concerns the target BSA (bovine (from the name BSA)) (UniProt P02769).
The target of assay [3] is GST-Cohwt (from plasmid pGEX-Cohwt) (Clostridium thermocellum) (UniProt Q06851).

Sequence of UniProt P02769 (P02769 25-607): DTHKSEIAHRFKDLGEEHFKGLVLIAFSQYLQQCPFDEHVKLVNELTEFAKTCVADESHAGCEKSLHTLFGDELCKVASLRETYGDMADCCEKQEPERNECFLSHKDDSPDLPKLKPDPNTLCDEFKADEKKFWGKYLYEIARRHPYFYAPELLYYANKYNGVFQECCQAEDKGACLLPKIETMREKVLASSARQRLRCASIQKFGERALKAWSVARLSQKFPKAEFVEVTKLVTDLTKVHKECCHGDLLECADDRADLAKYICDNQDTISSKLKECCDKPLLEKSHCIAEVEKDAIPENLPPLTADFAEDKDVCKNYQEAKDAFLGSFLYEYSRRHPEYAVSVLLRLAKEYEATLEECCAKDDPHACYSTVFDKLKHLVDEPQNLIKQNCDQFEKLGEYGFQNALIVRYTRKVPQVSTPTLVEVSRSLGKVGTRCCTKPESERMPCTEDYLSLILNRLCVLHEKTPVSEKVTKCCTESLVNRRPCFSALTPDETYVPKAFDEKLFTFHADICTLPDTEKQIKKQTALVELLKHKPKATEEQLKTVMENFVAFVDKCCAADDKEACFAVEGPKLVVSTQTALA

What is called Kd is the equilibrium constant for the complex coming apart. On to “MBP-X6b-Docwt-His6 (from plasmid pMAL-Docwt) (from UniProt P51584 733-791) (domain or fragment)”, for which the values for the Kd in assay [1], in assay [2] and in assay [3] were over 0.5 µM, over 1 µM and 0.00077 µM, respectively.
